The results in this text go back to publication PMC7878817.

One experiment addresses human FcRn (human) (UniProt P55899). In words: BLI; pH 6.0. In general terms: In BLI a coated tip is dipped into the sample, and binding shifts an interference pattern.
The next experiment concerns the target MD65 IgG-YTE (human). Briefly: BLI.

A word on the Kd: it is a measure of binding affinity in units of concentration. MD65 IgG-YTE returned a Kd in the experiment with human FcRn (human) of 20 nM.
In the experiment with MD65 IgG-YTE (human), “human FcRn (from UniProt P55899 24-297) (receptor)” displayed a fold change of affinity (steady state) against MD65 IgG of 10 fold and a fold change of on-rate against MD65 IgG of 3 fold.
